Where a chain is given by its changes, count along the chain named. Entries after “also recorded” stand apart in the source; their conditions may differ. Where no end group is shown, it is not given here. MBP = maltose-binding protein (N-terminal fusion tag)
Key:
RAD51–ssDNA NPF = test: EMSA of MBP-fusion TR2 mutants binding the RAD51-ssDNA NPF; set-up: species or system human; settings: for binding of MBP-TR2 mutant to the RAD51 NPF: ssDNA 60 nt, His6-MBP-TR2 5 min, room temperature, 25 mM HEPES pH 7.5, 150 mM NaCl, 2 mM ATP, 5 mM CaCl2, repeated once
Description: The local resolution at the TR2 site was lower than for the global map, which complicated the model fitting for the peptide. Fitting with the correct sequence register was guided by the density of the large side chains in the highly conserved TR2 region 3296-KAFQPPR-3302 (Fig. 3A). To validate our molecular model of BRCA2 TR2 association with the RAD51 NPF, we performed a mutational analysis of the RAD51–TR2 interface, targeting residues that are predicted by the structure to be important for the RAD51-TR2 interaction (Fig. 4A, B). We generated TR2 mutants as Maltose-Binding Protein (MBP) fusion proteins (Supplementary Fig. 1) and measured by EMSA their ability to bind the RAD51 NPF.
Fig. 4 Structure-based mutational analysis of the BRCA2 TR2-RAD51 interface. A Multiple sequence alignment of BRCA2 TR2 sequences, coloured according to residue type (Hse: Homo sapiens; Gga: Gallus gallus; Xla: Xenopus laevis; Dre: […]). B Drawing of TR2 and RAD51 amino acids targeted for mutagenesis. Drawing style as in D–F of Fig. 3. C–E EMSA analysis of RAD51–ssDNA NPF binding by MBP-fusion TR2 mutants K3296A, Q3299A, R3302A (C); 3A (K3296A, Q3299, R3302A), 3D (K3296D, Q3299D, R3302D) (D); S3291A, F3298A (E). The TR2 peptide was used as a control. EMSA experiments repeated once. Source data are provided as a Source Data file.
An E.coli codon-optimised gene fragment encoding residues D3260 to Y3308 of human BRCA2 was synthesised (IDT) with flanking BamHI and HindIII restriction sites and ligated into the pMAT11 expression vector[44] (Addgene plasmid #112592) to express BRCA2 TR2 as a dual-tag His6-MBP (Maltose-Binding Protein) fusion protein. pMAT11 constructs for expression of BRCA2 TR2 mutants S3291A, F3298A, K3296A, Q3299A, R3302A, the triple K3296, Q3299, […] alanine (3A) and aspartic acid (3D) mutants were produced in the same way as the wild-type construct.
All His6-MBP-BRCA2 TR2 fusion proteins were expressed and purified in an identical manner. pMat11-His6-MBP-TR2 constructs were transformed into E.coli BL21(DE3)Rosetta2 and transformed cells were used to inoculate 2YT growth medium supplemented with 50 μg/ml ampicillin. Cells were cultured until an OD600 reading of 0.7 before induction with 0.5 mM IPTG. Cell pellets were resuspended in resuspension buffer and sonicated to lyse cells in the presence of EDTA-free protease inhibitor. Cell lysate supernatant was loaded on a 5-ml HisTrap HP column pre-equilibrated with His Buffer A before elution in 40% His Buffer B. Fractions containing the His6-MBP-BRCA2 TR2 protein were pooled and purified further by size-exclusion chromatography using a 16/600 Superdex S75 pg (Cytiva) column pre-equilibrated in storage buffer. To minimise the presence of proteolytically degraded protein, a single fraction at the front of the elution peak containing His6-MBP-TR2 was retained and concentrated to at least 100 μM before flash freezing in liquid nitrogen and storage at −80 °C.
To assess RAD51 nucleoprotein (NPF) formation, wild-type and mutant RAD51 proteins were incubated with DNA in buffer: 25 mM HEPES pH 7.5, 150 mM NaCl, 2 mM DTT, 2 mM ATP, 5 mM CaCl2 for 15 minutes at room temperature. For filament binding of the TR2 peptide or His6-MBP-TR2 protein, the RAD51 NPFs were incubated with TR2 for further 5 minutes at room temperature. For filament binding of BRC4, the BRC4 peptide was pre-mixed with RAD51 for 10 minutes at room temperature before addition of DNA. For experiments with mono-streptavidin (mSA)-capped DNA, mSA (Sigma) was added in 5× molar excess of biotin labels for 15 minutes at room temperature prior to the addition of RAD51. Concentrations are provided in figures and DNA sequences for each experiment are reported in Supplementary Table 1.
Before electrophoresis, samples were mixed with a 0.5:1 volume of 50% (w/v) sucrose solution and analysed on a pre-run 0.5% (w/v) agarose gel in 0.5× TB buffer at 35 V for 2.5 hours at 4 °C. […]

RAD51;BRCA2 TR2 peptide [1] = biological target: T1, RAD51;BRCA2 TR2 peptide (Homo sapiens;Homo sapiens, UniProt Q06609;P51587 1-339;, |); test: cryo-EM micrographs; TR2 1:0.5; filament bundling; EMSA: 25 mM HEPES pH 7.5, 150 mM NaCl, 2 mM DTT, 2 mM ATP, 5 mM CaCl2, room temperature; SPR: 25 mM HEPES pH 7.4, 100 mM NaCl, 2 mM DTT, 2 mM ATP, 5 mM CaCl2, 5 mM MgCl2; settings: tags: untagged (co-expressed with His6-MBP-BRC4, pMBP4-RAD51);
RAD51;BRCA2 TR2 peptide [2] = biological target: T1, RAD51;BRCA2 TR2 peptide; test: SPR; TR2 on preformed filament; ATP, Ca2+, Mg2+; EMSA: 25 mM HEPES pH 7.5, 150 mM NaCl, 2 mM DTT, 2 mM ATP, 5 mM CaCl2, room temperature; SPR: 25 mM HEPES pH 7.4, 100 mM NaCl, 2 mM DTT, 2 mM ATP, 5 mM CaCl2, 5 mM MgCl2; settings: tags: untagged (co-expressed with His6-MBP-BRC4, pMBP4-RAD51);
RAD51;BRCA2 TR2 peptide [3] = biological target: T1, RAD51;BRCA2 TR2 peptide; test: EMSA; TR2 enhances filament; ATP, Ca2+; EMSA: 25 mM HEPES pH 7.5, 150 mM NaCl, 2 mM DTT, 2 mM ATP, 5 mM CaCl2, room temperature; SPR: 25 mM HEPES pH 7.4, 100 mM NaCl, 2 mM DTT, 2 mM ATP, 5 mM CaCl2, 5 mM MgCl2; settings: tags: untagged (co-expressed with His6-MBP-BRC4, pMBP4-RAD51);
human RAD51, wild type [4] = biological target: T2, human RAD51, wild type (human, UniProt Q06609 1-339); test: native gel or EMSA; TR2 peptide titrated on RAD51 NPFs pre-formed on fluorescein-labelled ss- or dsDNA; 25 mM HEPES pH 7.5, 150 mM NaCl, 2 mM DTT, 2 mM ATP, 5 mM CaCl2, room temperature, TR2 added for 5 minutes; 0.5% agarose gel at 4 °C; settings: both partners purified
T2 construct: RAD51, human DNA-strand exchange protein; In all assays RAD51 stood as a nucleoprotein filament on ss- or dsDNA with ATP and CaCl2; probably the whole, untagged protein; also called WT RAD51; RAD51 NPF; source: E. coli BL21(DE3)Rosetta2, co-expressed with His6-MBP-BRCA2 BRC4, purified (HisTrap, heparin, SEC)
T2 sequence: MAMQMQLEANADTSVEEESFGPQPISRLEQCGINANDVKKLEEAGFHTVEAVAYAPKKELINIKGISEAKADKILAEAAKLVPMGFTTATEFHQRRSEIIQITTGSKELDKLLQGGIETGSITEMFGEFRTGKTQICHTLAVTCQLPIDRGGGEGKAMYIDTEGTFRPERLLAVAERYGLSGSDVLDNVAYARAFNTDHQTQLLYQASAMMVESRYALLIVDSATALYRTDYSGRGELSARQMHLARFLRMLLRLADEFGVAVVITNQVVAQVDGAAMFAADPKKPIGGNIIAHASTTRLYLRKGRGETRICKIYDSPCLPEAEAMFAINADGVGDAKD

human RAD51, wild type [5] = biological target: T2, human RAD51, wild type; test: native gel or EMSA; His6-MBP-TR2 fusion proteins added for 5 minutes to RAD51–ssDNA NPFs; 25 mM HEPES pH 7.5, 150 mM NaCl, 2 mM DTT, 2 mM ATP, 5 mM CaCl2, room temperature; 0.5% agarose gel; settings: both partners purified

“Q3299A: His6-MBP fusion protein of BRCA2 TR2 mutant Q3299A ({His6-MBP}-DDQKNCKKRRALDFLSRLPLPPPVSPICTFVSPAAQKAFAPPRSCGTKY; cysteine pairing not given here)” was tested, and the “binding of MBP-TR2 mutant to the RAD51 NPF” value (RAD51–ssDNA NPF) was “increased association with the filament”.

“R3302A: His6-MBP fusion protein of BRCA2 TR2 mutant R3302A ({His6-MBP}-DDQKNCKKRRALDFLSRLPLPPPVSPICTFVSPAAQKAFQPPASCGTKY; cysteine pairing not given here)” was tested, and the “binding of MBP-TR2 mutant to the RAD51 NPF” value (RAD51–ssDNA NPF) was “modest decrease in filament binding”.

In the case of “F3298A: His6-MBP fusion protein of BRCA2 TR2 mutant F3298A ({His6-MBP}-DDQKNCKKRRALDFLSRLPLPPPVSPICTFVSPAAQKAAQPPRSCGTKY; cysteine pairing not given here)”, the “binding of MBP-TR2 mutant to the RAD51 NPF” value (RAD51–ssDNA NPF) is reported as “abolished TR2 binding to the RAD51 NPF; also recorded: complete loss of TR2 binding”.

In the case of “S3291A: His6-MBP fusion protein of BRCA2 TR2 mutant S3291A ({His6-MBP}-DDQKNCKKRRALDFLSRLPLPPPVSPICTFVAPAAQKAFQPPRSCGTKY; cysteine pairing not given here)”, the “binding of MBP-TR2 mutant to the RAD51 NPF” value (RAD51–ssDNA NPF) is reported as “drastically reduced” and the “residual binding of MBP-TR2 mutant to the RAD51 NPF” value (RAD51–ssDNA NPF; ssDNA, Fig. 4E) is reported as “still able to associate with the filament; also recorded: retains a degree of binding to the filament”.

With “K3296A: His6-MBP fusion protein of BRCA2 TR2 mutant K3296A ({His6-MBP}-DDQKNCKKRRALDFLSRLPLPPPVSPICTFVSPAAQAAFQPPRSCGTKY; cysteine pairing not given here)” the “binding of MBP-TR2 mutant to the RAD51 NPF” value (RAD51–ssDNA NPF) was “modest decrease in filament binding”.

B1: 50-nt dsDNA Cy3 (dsDNA)
DNA 1: CCGACTGACGCTCAACATAGGTACCACACGGCGAGCTCGATGCACCTCCA
DNA 2: TGGAGGTGCATCGAGCTCGCGACAAACCTTCTATGTTGAGCGTCAGTCGG
B1: binds (RAD51;BRCA2 TR2 peptide [1]; label: 3' Cy3 on strand 1, blunt ends, internal mismatched bubble about 10 nt).

B2: 60-nt ssDNA biotin (ssDNA)
DNA: ATGGTGTGTGTAGGTTAATGTGAGGAGGAGAGGTGAAGAAGGAGGAGAGAAGAAGGAGGC
B2: binds (RAD51;BRCA2 TR2 peptide [2]; label: 5' biotin).

B3: 60-bp dsDNA biotin (dsDNA)
DNA 1: B2 DNA
DNA 2: GCCTCCTTCTTCTCTCCTCCTTCTTCACCTCTCCTCCTCACATTAACCTACACACACCAT
B3: binds (RAD51;BRCA2 TR2 peptide [2]; label: 5' biotin on strand 1, blunt).

B4: 60-nt ssDNA FAM (ssDNA)
DNA: B2 DNA
B4: binds (RAD51;BRCA2 TR2 peptide [3]; label: 5' FAM).

B5: 60-bp dsDNA FAM (dsDNA)
DNA 1: B2 DNA
DNA 2: B3 DNA 2
B5: binds (RAD51;BRCA2 TR2 peptide [3]; label: 5' FAM on strand 1, blunt).

B6: BRCA2 TR2 peptide spanning amino acids 3260 to 3308 (peptide, UniProt P51587 3260-3308, looked up)
peptide: DDQKNCKKRRALDFLSRLPLPPPVSPICTFVSPAAQKAFQPPRSCGTKY
notes: Only residues 3289 to 3304 are modelled in the PDB entries; source: synthetic peptide (synthesised commercially)
B6: binds (human RAD51, wild type [4]).

B7: His6-MBP-BRCA2 TR2 R3302A (domain or fragment, human, UniProt P51587 3260-3308, looked up)
chain: B6 peptide with R43A
notes: BRCA2, human, TR2 motif, residues D3260 to Y3308; source: E. coli BL21(DE3)Rosetta2, purified (HisTrap, SEC); not shown: His6, N-terminal, kept; MBP, N-terminal, kept
B7: binds (human RAD51, wild type [5]).

B8: His6-MBP-BRCA2 TR2 Q3299A (domain or fragment, human, UniProt P51587 3260-3308, looked up)
chain: B6 peptide with Q40A
notes: as for B7
B8: binds (human RAD51, wild type [5]).

B9: His6-MBP-BRCA2 TR2 K3296A (domain or fragment, human, UniProt P51587 3260-3308, looked up)
chain: B6 peptide with K37A
notes: as for B7
B9: binds (human RAD51, wild type [5]).

TTTTTTTTTTTCGTGTGGTACTTTTTTTTTTT (ssDNA) [32-nt ssDNA Cy5]: binds (RAD51;BRCA2 TR2 peptide [1]; label: 5' Cy5).
